Measured values as given in article PMC5994897.

Tests used:
[1] = target: yeast αβ-tubulin (wild type) (yeast (overexpressed in S. cerevisiae)) (UniProt P09733); assay: AUC
[2] = target: Yeast tubulin with a C-terminal … tag, ReAsH-labeled (yeast (overexpressed in S. cerevisiae)) (UniProt P09733); assay: TIRF microscopy microtubule-binding titration

Kd [1] [µM] | Kd [2] [µM] | Molecule
1.68 |  | Stu1-TOG2 (305-567) (from UniProt P38198 305-567) (domain or fragment)
 | 12 | Alexa-488-labeled Stu1-TOG2 with a KCK tag (domain or fragment, Alexa-488 label) DPAMKKNYESLNQLQQDLENLLAPFQSVKETEQNWKLRQSNIIELDNIISGNIPKDNPEEFVTVIKEVQLIELISRATSSLRTTLSLTALLFLKRLIHILNDQLPLSILDQIFVIFKNLLSSTKKISSQTAFHCLITLIIDINHFHNKLFQLSFLLINEKTVTPRFCSAILLRSFLIKFNDSNLSLNNSNTTSPTSKLENNIIYIEEWLKKGISDSQTTVREAMRLTFWYFYKCYPTNAKRLLSSSFSPQLKKATELAIPAHL
 | 40 | Alexa-488-labeled Stu1-TOG1 with a KCK tag (domain or fragment, Alexa-488 label) NSNTNTHPDDSFPLYTVFKDESVPIEEKMALLTRFKGHVKKELVNESSIQAYFAALLFISGHYAYRSYPRLIFLSHSSLCYLIKRVAMQSPVQFNDTLVEQLLNHLIFELPNEKKFWLASIKAIEAIYLVNPSKIQAILANFLRRPSENQNGDYLNRIKSTLLTIDELIQINEKNNSNHLQLLRFFMLSFTNLLNNNLNEHANDDNNNVIIELIFDIMYKYLKMDDENSQDLIDGFINDLEVEKFKQKFISLAKSQDQHGSQEDKS
